The text below walks through data of EP2002021B1.

Test in all cases: cell-based or functional assay
For assay [1], the target named is EGFR-TEV-NIa-Pro cleavage (Leu)-tTA (human) (UniProt P00533).
Assay [2] addresses CCR5-tTA fusion construct containing the low efficiency cleavage site (UniProt P51681).
For assay [3], the target named is IGF1R-TEV-NIa-Pro cleavage (Leu)-tTA (human) (UniProt P08069).
Sequence of UniProt P08069 (P08069 whole entry, form in doubt): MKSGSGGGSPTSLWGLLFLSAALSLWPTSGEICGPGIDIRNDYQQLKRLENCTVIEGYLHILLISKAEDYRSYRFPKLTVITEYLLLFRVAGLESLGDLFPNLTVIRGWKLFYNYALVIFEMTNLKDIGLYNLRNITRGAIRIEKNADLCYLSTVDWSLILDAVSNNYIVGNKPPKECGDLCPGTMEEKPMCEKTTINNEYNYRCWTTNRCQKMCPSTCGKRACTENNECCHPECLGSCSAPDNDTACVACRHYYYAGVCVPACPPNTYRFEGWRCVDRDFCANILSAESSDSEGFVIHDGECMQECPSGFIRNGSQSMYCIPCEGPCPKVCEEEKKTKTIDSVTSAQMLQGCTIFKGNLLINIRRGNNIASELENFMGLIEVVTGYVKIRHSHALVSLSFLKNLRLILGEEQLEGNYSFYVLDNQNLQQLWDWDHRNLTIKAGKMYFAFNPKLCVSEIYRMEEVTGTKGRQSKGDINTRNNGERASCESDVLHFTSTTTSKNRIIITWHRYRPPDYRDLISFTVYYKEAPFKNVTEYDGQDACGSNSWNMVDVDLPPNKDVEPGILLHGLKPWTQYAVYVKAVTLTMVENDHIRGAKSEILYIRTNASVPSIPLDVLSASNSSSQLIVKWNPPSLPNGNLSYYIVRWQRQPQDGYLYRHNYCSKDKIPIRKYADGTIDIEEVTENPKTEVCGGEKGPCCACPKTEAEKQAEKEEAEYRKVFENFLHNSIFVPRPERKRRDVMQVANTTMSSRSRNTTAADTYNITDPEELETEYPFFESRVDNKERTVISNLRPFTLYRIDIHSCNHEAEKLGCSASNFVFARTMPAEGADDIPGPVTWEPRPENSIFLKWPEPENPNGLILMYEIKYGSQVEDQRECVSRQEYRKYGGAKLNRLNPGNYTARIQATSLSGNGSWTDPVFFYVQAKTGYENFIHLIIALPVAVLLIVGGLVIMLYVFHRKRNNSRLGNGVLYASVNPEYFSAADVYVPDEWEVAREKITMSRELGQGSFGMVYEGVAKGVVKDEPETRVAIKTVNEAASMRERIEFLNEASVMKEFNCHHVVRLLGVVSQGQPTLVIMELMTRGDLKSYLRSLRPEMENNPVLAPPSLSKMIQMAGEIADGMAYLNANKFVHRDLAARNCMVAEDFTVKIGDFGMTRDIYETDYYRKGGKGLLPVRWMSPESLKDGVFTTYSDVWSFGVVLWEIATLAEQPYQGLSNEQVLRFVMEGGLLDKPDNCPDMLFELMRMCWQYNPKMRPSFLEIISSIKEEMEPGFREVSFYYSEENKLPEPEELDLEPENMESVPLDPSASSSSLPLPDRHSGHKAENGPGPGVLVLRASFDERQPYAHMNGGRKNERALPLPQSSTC

Sequence of UniProt P51681 (P51681 whole entry, form in doubt, the tested form may be a part): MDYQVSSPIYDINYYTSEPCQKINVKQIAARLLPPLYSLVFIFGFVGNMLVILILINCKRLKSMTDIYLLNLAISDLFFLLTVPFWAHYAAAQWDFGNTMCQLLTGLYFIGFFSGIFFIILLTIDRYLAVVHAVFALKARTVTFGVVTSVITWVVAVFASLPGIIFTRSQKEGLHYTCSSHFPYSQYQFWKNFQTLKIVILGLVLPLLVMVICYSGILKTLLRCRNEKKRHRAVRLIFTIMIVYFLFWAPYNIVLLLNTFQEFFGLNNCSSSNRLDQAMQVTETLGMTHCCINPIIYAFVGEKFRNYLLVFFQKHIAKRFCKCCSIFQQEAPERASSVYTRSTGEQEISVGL

In the case of PLC Gamma1-TEV, in assay [1], the fold increase of luciferase reporter gene activity, 2.5 ng/ml EGF amounted to 12.3 fold and the fold increase of luciferase reporter gene activity, 100 ng/ml TGF-alpha was determined as 18.3 fold. In turn, “Regulated on Activation, Normal T-Cell Expressed and Secreted (RANTES) (from UniProt P13501 24-91) (ligand)” had a fold induction of reporter gene expression over the background, 1 µg/ml RANTES, clone 34 cells in assay [2] of 40 fold. SHC1-TEV (from UniProt P29353 1-238) came in with a fold increase of luciferase reporter gene activity, 1 µM IGF-1 in assay [3] of 90 fold. The substance “human Transforming Growth Factor - Alpha (from UniProt P01135 40-89) (ligand)” returned a fold increase of luciferase reporter gene activity, 100 ng/ml TGF-alpha in assay [1] of 18.3 fold.
